{"source": "IntAct's records for PubMed 31515488", "parents": {"B1": {"name": "DCC-interacting protein 13-alpha (Homo sapiens), Q9UKG1 (parent)", "chain": "MPGIDKLPIEETLEDSPQTRSLLGVFEEDATAISNYMNQLYQAMHRIYDAQNELSAATHLTSKLLKEYEKQRFPLGGDDEVMSSTLQQFSKVIDELSSCHAVLSTQLADAMMFPITQFKERDLKEILTLKEVFQIASNDHDAAINRYSRLSKKRENDKVKYEVTEDVYTSRKKQHQTMMHYFCALNTLQYKKKIALLEPLLGYMQAQISFFKMGSENLNEQLEEFLANIGTSVQNVRREMDSDIETMQQTIEDLEVASDPLYVPDPDPTKFPVNRNLTRKAGYLNARNKTGLVSSTWDRQFYFTQGGNLMSQARGDVAGGLAMDIDNCSVMAVDCEDRRYCFQITSFDGKKSSILQAESKKDHEEWICTINNISKQIYLSENPEETAARVNQSALEAVTPSPSFQQRHESLRPAAGQSRPPTARTSSSGSLGSESTNLAALSLDSLVAPDTPIQFDIISPVCEDQPGQAKAFGQGGRRTNPFGESGGSTKSETEDSILHQLFIVRFLGSMEVKSDDHPDVVYETMRQILAARAIHNIFRMTESHLLVTCDCLKLIDPQTQVTRLTFPLPCVVLYATHQENKRLFGFVLRTSSGRSESNLSSVCYIFESNNEGEKICDSVGLAKQIALHAELDRRASEKQKEIERVKEKQQKELNKQKQIEKDLEEQSRLIAASSRPNQASSEGQFVVLSSSQSEESDLGEGGKKRESEA", "partner": "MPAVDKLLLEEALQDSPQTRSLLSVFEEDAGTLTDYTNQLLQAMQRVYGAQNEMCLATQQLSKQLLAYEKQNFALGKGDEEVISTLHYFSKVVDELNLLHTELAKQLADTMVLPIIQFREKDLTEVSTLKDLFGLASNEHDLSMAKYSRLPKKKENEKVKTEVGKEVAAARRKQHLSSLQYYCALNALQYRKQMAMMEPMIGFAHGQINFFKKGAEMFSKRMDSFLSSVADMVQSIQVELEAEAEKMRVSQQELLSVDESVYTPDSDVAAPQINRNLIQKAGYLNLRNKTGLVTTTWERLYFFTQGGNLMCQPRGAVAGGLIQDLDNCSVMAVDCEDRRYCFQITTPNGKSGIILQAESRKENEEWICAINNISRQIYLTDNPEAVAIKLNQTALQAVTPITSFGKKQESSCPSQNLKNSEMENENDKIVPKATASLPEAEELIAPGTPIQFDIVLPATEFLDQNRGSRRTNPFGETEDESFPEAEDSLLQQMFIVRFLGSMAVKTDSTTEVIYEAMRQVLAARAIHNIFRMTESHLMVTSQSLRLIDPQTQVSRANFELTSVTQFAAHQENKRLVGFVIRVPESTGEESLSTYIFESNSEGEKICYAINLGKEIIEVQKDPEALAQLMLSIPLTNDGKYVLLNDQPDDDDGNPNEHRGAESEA"}, "B2": {"name": "\"Guanine nucleotide-binding protein G(T) subunit gamma-T1\" (Homo sapiens), P63211 (parent)", "chain": "MPVINIEDLTEKDKLKMEVDQLKKEVTLERMLVSKCCEEVRDYVEERSGEDPLVKGIPEDKNPFKELKGGCVIS", "partner": "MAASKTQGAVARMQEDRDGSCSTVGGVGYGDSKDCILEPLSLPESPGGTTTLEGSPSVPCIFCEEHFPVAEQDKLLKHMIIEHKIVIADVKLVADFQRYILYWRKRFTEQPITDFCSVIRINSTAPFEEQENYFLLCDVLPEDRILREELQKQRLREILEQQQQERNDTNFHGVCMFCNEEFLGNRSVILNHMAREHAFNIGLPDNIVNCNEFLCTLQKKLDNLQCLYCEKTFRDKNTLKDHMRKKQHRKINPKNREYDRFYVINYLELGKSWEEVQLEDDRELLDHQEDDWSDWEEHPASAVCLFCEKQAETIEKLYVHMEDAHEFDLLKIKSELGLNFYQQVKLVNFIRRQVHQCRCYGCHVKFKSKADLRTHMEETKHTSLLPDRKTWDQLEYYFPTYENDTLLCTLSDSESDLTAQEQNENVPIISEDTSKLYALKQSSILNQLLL"}, "B3": {"name": "Tuftelin-interacting protein 11 (Homo sapiens), Q9UBB9 (parent)", "chain": "MSLSHLYRDGEGRIDDDDDERENFEITDWDLQNEFNPNRQRHWQTKEEATYGVWAERDSDDERPSFGGKRARDYSAPVNFISAGLKKGAAEEAELEDSDDEEKPVKQDDFPKDFGPRKLKTGGNFKPSQKGFAGGTKSFMDFGSWERHTKGIGQKLLQKMGYVPGRGLGKNAQGIINPIEAKQRKGKGAVGAYGSERTTQSMQDFPVVDSEEEAEEEFQKELSQWRKDPSGSKKKPKYSYKTVEELKAKGRISKKLTAPQKELSQVKVIDMTGREQKVYYSYSQISHKHNVPDDGLPLQSQQLPQSGKEAKAPGFALPELEHNLQLLIDLTEQEIIQNDRQLQYERDMVVNLFHELEKMTEVLDHEERVISNLSKVLEMVEECERRMQPDCSNPLTLDECARIFETLQDKYYEEYRMSDRVDLAVAIVYPLMKEYFKEWDPLKDCTYGTEIISKWKSLLENDQLLSHGGQDLSADAFHRLIWEVWMPFVRNIVTQWQPRNCDPMVDFLDSWVHIIPVWILDNILDQLIFPKLQKEVENWNPLTDTVPIHSWIHPWLPLMQARLEPLYSPIRSKLSSALQKWHPSDSSAKLILQPWKDVFTPGSWEAFMVKNIVPKLGMCLGELVINPHQQHMDAFYWVIDWEGMISVSSLVGLLEKHFFPKWLQVLCSWLSNSPNYEEITKWYLGWKSMFSDQVLAHPSVKDKFNEALDIMNRAVSSNVGAYMQPGARENIAYLTHTERRKDFQYEAMQERREAENMAQRGIGVAASSVPMNFKDLIETKAEEHNIVFMPVIGKRHEGKQLYTFGRIVIYIDRGVVFVQGEKTWVPTSLQSLIDMAK", "partner": "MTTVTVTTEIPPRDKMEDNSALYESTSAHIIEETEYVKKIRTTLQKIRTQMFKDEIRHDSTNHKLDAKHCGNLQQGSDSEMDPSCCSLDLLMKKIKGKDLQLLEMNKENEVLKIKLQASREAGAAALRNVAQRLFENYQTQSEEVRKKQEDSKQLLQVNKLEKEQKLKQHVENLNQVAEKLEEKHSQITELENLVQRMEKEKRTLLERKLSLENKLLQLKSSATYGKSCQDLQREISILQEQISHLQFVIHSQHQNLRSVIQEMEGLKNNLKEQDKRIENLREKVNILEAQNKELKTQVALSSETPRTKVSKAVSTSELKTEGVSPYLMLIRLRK"}, "B4": {"name": "Protein LDOC1 (Homo sapiens), O95751 (parent)", "chain": "MVDELVLLLHALLMRHRALSIENSQLMEQLRLLVCERASLLRQVRPPSCPVPFPETFNGESSRLPEFIVQTASYMLVNENRFCNDAMKVAFLISLLTGEAEEWVVPYIEMDSPILGDYRAFLDEMKQCFGWDDDEDDDDEEEEDDY", "partner": "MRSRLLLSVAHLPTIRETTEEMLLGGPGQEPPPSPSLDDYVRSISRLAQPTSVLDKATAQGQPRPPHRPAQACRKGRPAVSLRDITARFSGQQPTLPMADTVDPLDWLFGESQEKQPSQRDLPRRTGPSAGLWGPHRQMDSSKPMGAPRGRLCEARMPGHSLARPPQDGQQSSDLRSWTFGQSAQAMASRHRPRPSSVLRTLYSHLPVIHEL"}, "B5": {"name": "Keratin, type II cytoskeletal 6A (Homo sapiens), P02538 (parent)", "chain": "MASTSTTIRSHSSSRRGFSANSARLPGVSRSGFSSVSVSRSRGSGGLGGACGGAGFGSRSLYGLGGSKRISIGGGSCAISGGYGSRAGGSYGFGGAGSGFGFGGGAGIGFGLGGGAGLAGGFGGPGFPVCPPGGIQEVTVNQSLLTPLNLQIDPTIQRVRAEEREQIKTLNNKFASFIDKVRFLEQQNKVLETKWTLLQEQGTKTVRQNLEPLFEQYINNLRRQLDSIVGERGRLDSELRGMQDLVEDFKNKYEDEINKRTAAENEFVTLKKDVDAAYMNKVELQAKADTLTDEINFLRALYDAELSQMQTHISDTSVVLSMDNNRNLDLDSIIAEVKAQYEEIAQRSRAEAESWYQTKYEELQVTAGRHGDDLRNTKQEIAEINRMIQRLRSEIDHVKKQCANLQAAIADAEQRGEMALKDAKNKLEGLEDALQKAKQDLARLLKEYQELMNVKLALDVEIATYRKLLEGEECRLNGEGVGQVNISVVQSTVSSGYGGASGVGSGLGLGGGSSYSYGSGLGVGGGFSSSSGRAIGGGLSSVGGGSSTIKYTTTSSSSRKSYKH", "partner": "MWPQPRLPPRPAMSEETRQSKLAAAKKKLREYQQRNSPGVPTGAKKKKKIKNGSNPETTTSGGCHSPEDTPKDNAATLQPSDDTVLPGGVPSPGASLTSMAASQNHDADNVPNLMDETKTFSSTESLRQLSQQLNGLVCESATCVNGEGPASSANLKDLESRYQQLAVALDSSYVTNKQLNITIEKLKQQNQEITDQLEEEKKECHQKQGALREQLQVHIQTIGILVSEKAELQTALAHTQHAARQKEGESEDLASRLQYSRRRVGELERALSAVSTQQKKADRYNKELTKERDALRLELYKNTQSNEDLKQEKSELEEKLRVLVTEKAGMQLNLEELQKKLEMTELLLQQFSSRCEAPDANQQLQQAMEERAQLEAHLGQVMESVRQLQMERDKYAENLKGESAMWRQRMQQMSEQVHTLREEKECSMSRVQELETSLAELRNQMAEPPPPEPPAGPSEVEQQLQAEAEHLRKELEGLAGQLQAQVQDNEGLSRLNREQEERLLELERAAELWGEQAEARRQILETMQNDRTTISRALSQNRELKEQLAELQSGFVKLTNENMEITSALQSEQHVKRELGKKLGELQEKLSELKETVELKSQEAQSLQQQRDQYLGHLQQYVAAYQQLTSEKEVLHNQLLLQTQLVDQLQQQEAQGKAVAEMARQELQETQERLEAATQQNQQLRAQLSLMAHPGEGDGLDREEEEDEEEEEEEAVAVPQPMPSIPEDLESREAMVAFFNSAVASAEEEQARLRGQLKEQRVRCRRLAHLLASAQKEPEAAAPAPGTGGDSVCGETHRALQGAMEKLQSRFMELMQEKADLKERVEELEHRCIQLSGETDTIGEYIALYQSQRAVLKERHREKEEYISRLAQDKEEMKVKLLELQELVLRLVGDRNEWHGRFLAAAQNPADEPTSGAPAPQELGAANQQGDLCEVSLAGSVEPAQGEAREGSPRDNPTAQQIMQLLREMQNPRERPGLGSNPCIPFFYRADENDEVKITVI"}}}
{"variants_of": "B1", "settings": "with dp13b_human APPL2, Q8NEU8"}
{"variant": "E643Q", "effect of a mutation on the interaction": "with no effect"}
{"variant": "E67G", "effect of a mutation on the interaction": "with no effect"}
{"variants_of": "B2", "settings": "with zn277_human ZNF277, Q9NRM2"}
{"variant": "E50K", "effect of a mutation on the interaction": "with no effect"}
{"variants_of": "B3", "settings": "with ccd68_human CCDC68, Q9H2F9"}
{"variant": "R8Q", "effect of a mutation on the interaction": "with no effect"}
{"variant": "S688L", "effect of a mutation on the interaction": "with no effect"}
{"variants_of": "B4", "settings": "with depp1_human DEPP1, Q9NTK1"}
{"variant": "L12H", "effect of a mutation on the interaction": "disrupting interaction strength"}
{"variants_of": "B5", "settings": "with goga2_human GOLGA2, Q08379"}
{"variant": "A335T", "effect of a mutation on the interaction": "with no effect"}
{"variant": "R415H", "effect of a mutation on the interaction": "with no effect"}
{"variant": "T552S", "effect of a mutation on the interaction": "with no effect"}
{"variant": "L210M", "effect of a mutation on the interaction": "with no effect"}
{"variant": "V523F", "effect of a mutation on the interaction": "with no effect"}
{"variant": "R559G", "effect of a mutation on the interaction": "with no effect"}
